Among the data in paper doi:10.1101/2024.10.10.617615 are fold change of ligation rate against Oxo (slower), fold change of ligation rate against Oxo (faster) and fold change of ligation rate against Val^S3 (slower) values, retold here.

For the assay, the target named is SpyCatcher003. In words: gel shift assay of isopeptide ligation.

Regarding “SpyTag003 Val^S9 thioamide variant (peptide)”, the fold change of ligation rate against Oxo (slower) was found to be 1.6 fold.

With “SpyTag003 Val^S7 thioamide variant (peptide)”, the fold change of ligation rate against Oxo (faster) turned out to be 1.4 fold.

As to “SpyTag003 Val^S3-Pro^S4 dual thioamide peptide”, the fold change of ligation rate against Oxo (slower) is 1.2 fold and the fold change of ligation rate against Val^S3 (slower) came out at 2 fold.

On to “SpyTag003 Val^S3 thioamide variant (peptide)”, for which the fold change of ligation rate against Oxo (faster) was 1.8 fold.

For the substance “SpyTag003 Ile^S6 thioamide variant (peptide)”, the fold change of ligation rate against Oxo (slower) is 5.4 fold.

For “SpyTag003 Ala^S11 thioamide variant (peptide)”, the fold change of ligation rate against Oxo (slower) came out at 38 fold.

As for “SpyTag003 Met^S8 thioamide variant (peptide)”, the fold change of ligation rate against Oxo (slower) was greater than 2000 fold.
